Results from patent US20230068663A1.

Legend:
Assay in all cases: flow cytometry, reporter cells, secondary antibody alone (blank)
LAIR1 on reporter cells = LAIR1 on reporter cells (UniProt Q6GTX8)
[1] = molecular target: LILRA1 on reporter cells (extracellular domain) (UniProt O75019)
LILRA2 = molecular target: LILRA2
LILRA3 = molecular target: LILRA3
LILRA4 = molecular target: LILRA4
LILRA5 = molecular target: LILRA5
LILRA6 = molecular target: LILRA6
LILRB1 = molecular target: LILRB1
[2] = molecular target: LILRB2 chimeric receptor on LILRB2 reporter cells (extracellular domain of LILRB2 fused with transmembrane/intracellular domains of PILRb) (UniProt Q8N423)
LILRB3 = molecular target: LILRB3
LILRB4 = molecular target: LILRB4
LILRB5 = molecular target: LILRB5
Chain of LILRB5 (chain, as listed by the source limits assumed): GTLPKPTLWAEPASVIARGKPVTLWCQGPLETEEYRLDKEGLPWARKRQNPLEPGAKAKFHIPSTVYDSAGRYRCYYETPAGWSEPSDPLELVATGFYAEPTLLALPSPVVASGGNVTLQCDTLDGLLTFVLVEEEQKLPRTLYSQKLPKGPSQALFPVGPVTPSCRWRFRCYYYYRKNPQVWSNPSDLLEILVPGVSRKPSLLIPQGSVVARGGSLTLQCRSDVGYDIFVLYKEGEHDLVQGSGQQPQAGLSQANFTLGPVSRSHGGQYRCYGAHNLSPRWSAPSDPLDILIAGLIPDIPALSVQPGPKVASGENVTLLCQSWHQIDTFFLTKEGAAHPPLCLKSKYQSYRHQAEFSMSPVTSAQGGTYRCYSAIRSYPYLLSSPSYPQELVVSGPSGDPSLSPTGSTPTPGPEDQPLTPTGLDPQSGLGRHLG

Chain of LILRA5 (chain, as listed by the source limits assumed): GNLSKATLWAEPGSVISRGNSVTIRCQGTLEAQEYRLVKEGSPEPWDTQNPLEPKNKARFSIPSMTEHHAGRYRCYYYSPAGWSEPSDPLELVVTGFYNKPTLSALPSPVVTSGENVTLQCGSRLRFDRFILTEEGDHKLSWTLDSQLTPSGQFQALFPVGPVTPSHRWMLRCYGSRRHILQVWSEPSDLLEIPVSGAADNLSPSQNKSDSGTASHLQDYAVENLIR
Chain of LILRA6 (chain, as listed by the source limits assumed): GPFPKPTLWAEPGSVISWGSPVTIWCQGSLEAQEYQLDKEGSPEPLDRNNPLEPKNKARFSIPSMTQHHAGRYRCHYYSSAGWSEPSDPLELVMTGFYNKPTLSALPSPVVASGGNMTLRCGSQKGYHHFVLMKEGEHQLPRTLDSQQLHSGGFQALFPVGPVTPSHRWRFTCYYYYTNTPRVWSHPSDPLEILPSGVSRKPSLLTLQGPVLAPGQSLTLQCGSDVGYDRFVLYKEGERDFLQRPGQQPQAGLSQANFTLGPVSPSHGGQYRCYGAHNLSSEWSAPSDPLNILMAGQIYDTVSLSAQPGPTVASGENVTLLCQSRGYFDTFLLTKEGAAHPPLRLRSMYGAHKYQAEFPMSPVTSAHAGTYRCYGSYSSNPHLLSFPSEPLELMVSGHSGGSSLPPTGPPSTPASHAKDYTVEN
Chain of LILRA3 (chain, as listed by the source limits assumed): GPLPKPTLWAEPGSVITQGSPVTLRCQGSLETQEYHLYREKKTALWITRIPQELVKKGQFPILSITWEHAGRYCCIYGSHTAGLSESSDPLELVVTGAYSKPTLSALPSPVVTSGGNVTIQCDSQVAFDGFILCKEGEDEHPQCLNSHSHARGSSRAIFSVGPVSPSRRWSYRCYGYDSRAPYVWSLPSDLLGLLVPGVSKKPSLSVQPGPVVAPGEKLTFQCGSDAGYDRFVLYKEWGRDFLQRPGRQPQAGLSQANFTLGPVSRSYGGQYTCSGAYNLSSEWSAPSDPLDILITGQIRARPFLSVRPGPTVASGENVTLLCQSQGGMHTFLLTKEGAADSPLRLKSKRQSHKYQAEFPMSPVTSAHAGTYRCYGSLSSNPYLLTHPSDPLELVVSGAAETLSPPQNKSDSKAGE
Chain of LILRA4 (chain, as listed by the source limits assumed): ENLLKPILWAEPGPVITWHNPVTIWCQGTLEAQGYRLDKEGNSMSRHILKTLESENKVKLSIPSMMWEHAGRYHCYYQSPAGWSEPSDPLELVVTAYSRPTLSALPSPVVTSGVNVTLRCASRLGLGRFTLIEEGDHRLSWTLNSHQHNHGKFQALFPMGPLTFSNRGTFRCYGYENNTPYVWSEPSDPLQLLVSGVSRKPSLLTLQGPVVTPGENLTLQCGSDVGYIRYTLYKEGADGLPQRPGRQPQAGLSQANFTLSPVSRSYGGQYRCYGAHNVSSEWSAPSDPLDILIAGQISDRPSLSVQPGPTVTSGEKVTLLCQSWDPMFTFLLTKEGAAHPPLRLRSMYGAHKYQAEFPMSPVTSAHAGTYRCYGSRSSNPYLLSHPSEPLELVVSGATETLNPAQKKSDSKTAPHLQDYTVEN
Chain of LILRA2 (chain, as listed by the source limits assumed): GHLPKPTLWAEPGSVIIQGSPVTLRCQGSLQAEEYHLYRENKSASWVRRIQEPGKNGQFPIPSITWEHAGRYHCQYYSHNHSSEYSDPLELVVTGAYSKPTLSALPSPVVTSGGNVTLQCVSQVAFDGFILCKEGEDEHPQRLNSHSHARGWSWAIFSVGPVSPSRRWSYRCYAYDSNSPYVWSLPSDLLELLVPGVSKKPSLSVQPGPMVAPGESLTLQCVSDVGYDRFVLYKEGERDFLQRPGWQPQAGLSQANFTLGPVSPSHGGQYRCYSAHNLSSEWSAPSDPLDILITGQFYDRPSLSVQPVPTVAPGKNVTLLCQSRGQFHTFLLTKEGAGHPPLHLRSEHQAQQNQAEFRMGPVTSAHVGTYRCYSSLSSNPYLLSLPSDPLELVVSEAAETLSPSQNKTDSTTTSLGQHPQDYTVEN
Chain of LAIR1 on reporter cells (Q6GTX8 22-165 limits assumed): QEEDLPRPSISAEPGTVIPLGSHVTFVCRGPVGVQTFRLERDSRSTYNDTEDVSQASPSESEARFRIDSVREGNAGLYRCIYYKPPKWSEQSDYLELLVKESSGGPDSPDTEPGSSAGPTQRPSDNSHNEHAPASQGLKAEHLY
Chain of LILRB1 (chain, as listed by the source limits assumed): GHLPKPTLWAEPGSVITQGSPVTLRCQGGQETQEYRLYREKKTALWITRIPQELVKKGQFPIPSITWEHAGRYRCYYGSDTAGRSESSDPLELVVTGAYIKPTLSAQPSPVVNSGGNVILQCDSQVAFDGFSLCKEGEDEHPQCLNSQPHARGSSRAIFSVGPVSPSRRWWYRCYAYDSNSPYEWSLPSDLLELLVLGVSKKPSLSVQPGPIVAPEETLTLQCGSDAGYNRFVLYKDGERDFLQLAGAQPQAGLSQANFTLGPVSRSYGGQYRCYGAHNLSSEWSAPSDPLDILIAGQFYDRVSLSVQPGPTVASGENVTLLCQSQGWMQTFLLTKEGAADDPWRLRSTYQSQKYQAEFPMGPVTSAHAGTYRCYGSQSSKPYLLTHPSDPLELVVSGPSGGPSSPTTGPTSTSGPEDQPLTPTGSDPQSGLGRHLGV
Chain of LILRA1 on reporter cells (extracellular domain) (O75019 17-461 limits assumed): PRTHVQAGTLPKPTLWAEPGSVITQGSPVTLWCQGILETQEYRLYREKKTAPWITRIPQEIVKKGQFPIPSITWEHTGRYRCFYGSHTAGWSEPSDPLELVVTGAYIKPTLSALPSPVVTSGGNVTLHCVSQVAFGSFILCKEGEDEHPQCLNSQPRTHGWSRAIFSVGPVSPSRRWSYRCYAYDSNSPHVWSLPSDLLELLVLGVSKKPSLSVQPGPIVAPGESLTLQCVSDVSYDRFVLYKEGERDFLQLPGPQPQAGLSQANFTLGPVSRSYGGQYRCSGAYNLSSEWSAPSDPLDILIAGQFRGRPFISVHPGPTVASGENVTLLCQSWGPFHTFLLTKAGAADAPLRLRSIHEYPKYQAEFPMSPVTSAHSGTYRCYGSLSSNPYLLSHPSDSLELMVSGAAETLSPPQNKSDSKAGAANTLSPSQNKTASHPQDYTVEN

MFI (LAIR1 on reporter cells): 23 | MFI [1]: 10 | MFI (LILRA2): 9 | MFI (LILRA3): 10 | MFI (LILRA4): 10 | MFI (LILRA5): 11 | MFI (LILRA6): 10 | MFI (LILRB1): 9 | MFI [2]: 10 | MFI (LILRB3): 9 | MFI (LILRB4): 13 | MFI (LILRB5): 11
Substance: 2nd Ab (antibody)
